Key:
MV4-11 cells = assay: Sequential rounds of in vitro cytotoxicity assays with changing MTX concentration (reversible inhibition); format: cell-based, human; details: Round 0-1 no MTX, then 100 µM MTX at Round 1-2 and Round 2-3; FIGS. 9A and 9B
Method: The anti-CD33 clones tested in this example were: P03_A01, P07_C04, and P02_D09. In addition, a tool T cell was prepared as described in Example 4, as were untransduced T cells. Also, each of the different conditional CAR T cells described above was generated in triplicate from PBMC cells from three different human donors. The target cell line used in this assay was MV4-11; these cells were transduced to stably express GFP and firefly luciferase, as described in Example 5.
This experiment involved a series of in vitro cytotoxicity assays, in which co-cultures of T cells and MV4-11 target cells were incubated together for multiple rounds of sequential cytotoxicity assays, in which the MTX concentration changed at different rounds of the assays. In vitro cytotoxicity assays were carried out in 24-well plates by co-culturing 200,000 T cells with 200,000 MV4-11 cells, for each different T cells described above. In addition, each of the co-cultures contained either 100 µM MTX or 0 µM MTX at different times, as indicated by the schematics in FIGS. 9A and 9C. In both conditions, 1 mM leucovorin was supplemented to circumvent MTX toxicity. For each round of the assay, co-cultures were maintained in a final volume of 500 µl of RPMI 1640 medium at 37 C with 5% CO2 for 48 hours. At the end of each round, cells were spun down (250 × g, 10 minutes), supernatant was removed, and fresh media containing fresh MV4-11 cells, leucovorin, and optionally MTX were added according to the schematics shown in FIGS. 9A and 9C. Target cell killing was assessed and plotted as described in Example 4.
In comparing the different panels of FIGS. 9A-9D, note that the schematics shown in FIGS. 9A and 9C indicate the MTX concentration in the co-culture at the start of the assay for a given round, whereas the results from that assay are shown the next round number in FIGS. 9B and 9D, respectively. […]

human CD33 = assay: Biacore SPR binding kinetics of anti-CD33 scFv-Fc clones with or without 10 µM MTX; details: CD33, 37° C., pH 7.4, scFv-Fc
Description: The first 4 rounds of panning used biotinylated CD33 antigen captured on streptavidin or neutravidin coated 96-well plates. […] 1536 clones were randomly chosen from the 4th and 5th round of panning against the CD33 antigen and their binding specificity determined by phage ELISA. Clones that specifically bound to CD33 were sequenced and all unique clones were subjected to a phage competition ELISA to assess their relative affinities to CD33 and sensitivity to MTX by measuring their binding strengths in the presence or absence of 10 µM (micromolar) MTX (i.e. in 0 or 10 µM MTX).
All binding kinetics analysis was performed on label-free Biacore surface plasmon biosensors (Biacore T200™ from GE Life Sciences) at 37° C. in 10 mM Hepes pH 7.4, 150 mM NaCl, 0.05% Tween-20 (HBST+), with or without 10 µM MTX. The Biacore data were processed in Biacore T200 Evaluation Software, and the data were double-referenced (Myszka, 1999, J Mol Recognit 12(5):279-284) and fit globally to a simple Langmuir with mass transport model to determine the equilibrium dissociation constant, KD, from the ratio of the kinetic rate constants (KD = koff/kon). In some cases the binding of antigen was very low (or not detectable) in the presence of 10 µM MTX and as a result kinetic rate constants could not be accurately determined. In these cases, a KD (or KD limit) was estimated based on the binding response at the highest analyte concentration tested or based on the typical limit of detection for a Biacore T200.

Row | Molecule | target cell killing when MTX is added to active CAR T cells ("on" to "off") (MV4-11 cells) | koff, kinetics toward antigen with 0 µM MTX (human CD33) [s⁻¹] | kon, kinetics toward antigen with 0 µM MTX (human CD33) [M⁻¹ s⁻¹] | koff, kinetics toward antigen with 10 µM MTX (human CD33; 10 µM MTX) [s⁻¹] | kon, kinetics toward antigen with 10 µM MTX (human CD33; 10 µM MTX) [M⁻¹ s⁻¹]
1 | P07_C04: anti-CD33 clone with conditional affinity; VH SEQ ID NO: 25, VL SEQ ID NO: 26; also as scFv in CAR (antibody, V domains shown, Synthetic Antibody, also as scFv in CAR) VH: QVQLVESGGGLVQAGGSLRLSCAASRRSSRSWAMHWVRQAPGKGLEWVAVISYDGRLKYYADSVKGRFTISRDNAEYLVYLQMNSLRAEDTAVYYCAAEPDGEGTNGGLDIWGQGTLVTVSS VL: DIQMTQSPSSLSASVGDRVTITCRASQNISRYLNWYQQKPGKAPKLLIYSASSLQTGVPSRFSGSGSGTDFTLTISSLQPEDFATYYCQQSYSSGAFGQGTKVEIK | quick inhibition rates | 0.0029 | 95000 | 0.025 | 170000
2 | P03_A01: anti-CD33 clone with conditional affinity; VH SEQ ID NO: 19, VL SEQ ID NO: 20; also as scFv in CAR (antibody, V domains shown, Synthetic Antibody, also as scFv in CAR) VH: QVQLVESGGGLVQAGGSLRLSCAASRRSSRSWAMHWVRQAPGKGLEWVAVISYDGRLKYYADSVKGRFTISRDNAEYLVYLQMNSLRAEDTAVYYCAAETGSVGLDYWGQGTLVTVSS VL: DIQMTQSPSSLSASVGDRVTITCRASQGISTYLNWYQQKPGKAPKLLIYGATSLESGVPSRFSGSGSGTDFTLTISSLQPEDFATYYCQQGYSQGTFGQGTKVEIK | requires two rounds of MTX to be fully inhibited | 0.0057 | 50000 | – | –

— US20230192839A1, “ANTIBODIES HAVING CONDITIONAL AFFINITY AND METHODS OF USE THEREOF” (PFIZER INC., priority 2017, published 2023)
